Data on 2 substances can be found in article PMC4846058.

Assay [1] has as its target cynomolgus monkey IL-17A (Macaca fascicularis). Nature of the assay: SPR.
Assay [2] addresses ixekizumab (human). Briefly: SPR.

ixekizumab (antibody) displayed a Kd in assay [1] of 0.8 pM.
On to rabbit IL-17A (ligand), for which, in assay [2], the KD, heterogeneous ligand model, first set stood at 1.3 nM; the KD, heterogeneous ligand model, second set stood at 14 nM; the koff, heterogeneous ligand model, first set was 0.00017 s⁻¹; the koff, heterogeneous ligand model, second set worked out at 0.11 s⁻¹. Moreover, the kon, heterogeneous ligand model, first set in assay [2] stood at 150000 M⁻¹ s⁻¹.
